Experimental data: US20160208018A1 (JUNO THERAPEUTICS, published 2016)
Substitutions are numbered along the chain they refer to. In names and notes the source's numbering stands.

B1: Clone 350 scFv (scFv)
scFv: EVQLVESGGGLVQPGRSLRLSCTASGFTFGDYAMSWVRQAPGKGLEWVSSISGSGRSTDHADYVKGRFTISRDNSKNTVYLQMNRLRAEDTAVYYCAKVSNYEYYFDYWAQGTLVTVSSQPVLTQPHSVSESPGKTVTISCTRSSGSIASNYVQWYQQRPGSAPTTVIYEDNQRPSGVPDRFSGSIDSSSNSASLTISGLKTEDEADYYCQSYDSSNHVFGTGTKLTVL
B2: Clone 305 scFv (scFv)
scFv: EVQLVESGGGLVQPGRSLRLSCTASGFTFGDYAMSWVRQAPGKGLEWVSSISGSGRSTDHADYVKGRFTISRDNSKNTVYLQMNRLRAEDTAVYYCAKVSNYEYYFDYWAQGTLVTVSSQSVLTQPPSVSVAPGQTARITCGGNNIGSTSVHWFQQKPGQAPVLVVYDDSDRPSGIPERFSGSNSGNTATLTISRVEAGDEADYYCQVWDNDSDHRVFGGGTKLTVL
B3: Clone 366 scFv (scFv)
scFv: EVQLVESGGGLVQPGRSLRLSCTASGFTFGDYAMSWVRQAPGKGLEWVSSISGSGRSTDHADYVKGRFTISRDNSKNTVYLQMNRLRAEDTAVYYCAKVSNYEYYFDYWAQGTLVTVSSQSVLTQPPSVPGTPGQRVTITCSGSRFNIGSNTVNWYQQLPGTAPKLLIYSNNQRPSGVPDRFSGSKSGTSASLAISGLQSEDEADYYCAAWDDSLNGYVFGTGTKLTVL
notes: Printed without a linker
B4: Clone 83B scFv (scFv)
scFv: QVQLVQSGAEVKKPGASVKVSCKASGYTFTSYYMHWVRQAPGQGLEWMGIINPNGGSTSYAQKFQGRVTMTRDTSTSTVYMELSSLRSEDTAVYYCARDSSYDAFDIWGQGTMVTVSSGGGGSGGGGSGGGGSAIQLTQSPSTLSASVGDRVTITCQASQDISNYLNWYQQKPGKAPKLLINDASYLETGVPSRFSGSGSGTDFTLTISSLQPEDIATYYCQQYESLPYTFGQGTKLEIK
notes: De-glycosylation variant of clone 83 (S to N at VH position 53, Kabat)
B5: Clone 298 scFv (scFv)
scFv: EVQLVESGGGLVQPGRSLRLSCTASGFTFGDYAMSWVRQAPGKGLEWVSSISGSGRSTDHADYVKGRFTISRDNSKNTVYLQMNRLRAEDTAVYYCAKVSNYEYYFDYWAQGTLVTVSSGGGGSGGGGSGGGGSEIVLTQSPSVSVAPGQTARITCGGSNIGSESVNWYQWKSGQVPVLVVSDTTDRPSGIPGRFTGTRSGTTATLTISGVEAGDEADYHCQVWDDTGDHPVFGGGTKLTVL
B6: Clone V397 (VHH)
VHH: QITLKESGGGLVQPGGSLRLSCAASGFTFSNAWMSWVRQAPGKGLEWVGRIKSKTDGGTTDYAAPLKGRFTISRDDSKNTLYLQMNSLKTEDTAVYYCARAKGLWFGESYYFDYWGQGTLVTVSS
notes: human VH-only single-domain antibody, no VL
B7: Clone V163 (VHH)
VHH: QVQLVESGGGLVKPGGSLRLSCAASGFTFSNAWMSWVRQAPGKGLEWVGRIKSKTDGGTTDYAAPVKGRFTISRDDSKNTLYLQMNSLKTEDTAVYYCARQGDSSSWYVEVYYFDYWGQGTLVTVSS
notes: as for B6
B8: Clone V312 (VHH)
VHH: EVQLVESGGGLVKPRGSLRLSCAASGFTFSNAWMSWVRQAPGKGLEWVGRIKSKTDGGTTDYAAPVKGRFTISRDDSKNTLYLQMNSLKTEDTAVYYCARTSRGRFLEWLLFDYWGQGTLVTVSS
notes: as for B6
B9: Clone V331 (VHH)
VHH: QVQLQQWGAGLLKPSETLSLTCAVYGGSFSGYYWSWIRQPPGKGLEWIGKINHSGSTNYNPSLKSRVTISVDTSKNQFSLKLSSVTAADTAVYYCARGQIAAHVWGWFDPWGQGTLVTVSS
notes: as for B6
B10: Clone V420 (VHH)
VHH: QVQLVESGGGLVQPGGSLRLSCAASGFTFSSYWMSWVRQAPGKGLEWVANIKQDGSEKYYVDSVKGRFTISRDNAKNSLYLQMNSLRAEDTAVYYCARVNGGEYYFDYWGQGTLVTVSS
notes: as for B6
B11: Clone V282 (VHH)
VHH: B10 VHH with Q1E, N100R, G102S
notes: as for B6
B12: Clone V181 (VHH)
VHH: QITLKESGGGLVKPGRSLRLSCTASGFTFGDYAMSWFRQAPGKGLEWVGFIRSKAYGGTTEYAASVKGRFTISRDDSKSIAYLQMNSLKTEDTAVYYCAKDFEVREAHLSYFDYWGQGTLVTVSS
notes: as for B6
B13: Clone V278 (VHH)
VHH: QITLKESGGGLVQPGGSLRLSCAASGFTFSSYAMSWVRQAPGKGLEWVSAISGSGGSTYYADSVKGRFTISRDNSKNTLYLQMNSLRAEDTAVYYCAKERSRWGDNWFDPWGQGTLVTVSS
notes: as for B6
B14: CAR containing Clone V353 VH-only antigen-binding domain (other)
chain: QVTLKESGGGLVKPGGSLRLSCAASGFTFSNAWMSWVRQAPGKGLEWVGRIKSKTDGGTTDYAAPVKGRFTISRDDSKNTLYLQMNSLKTEDTAVYYCARDFGRWGYYFDYWSQGTLVTVSS
notes: Chimeric antigen receptor expressed on primary human CD8+ T cells; tEGFR marker is split off by T2A; also called V353 CAR; not shown: Ig-derived hinge only spacer, human CD28-derived transmembrane domain, human 4-1BB-derived intracellular signaling domai
B15: CAR containing Clone 48 scFv (VH-VL) (other)
chain: QVTLKESGGGLVKPGGSLRLSCAASGFTFSNAWMSWVRQAPGKGLEWVGRIKSKTDGGTTDYAAPVKGRFTISRDDSKNTLYLQMNSLKTEDTAVYYCARDFGRWSYYFDYWSQGTLVTVSSGGGGSGGGGSGGGGSQSVLTQPSSVSGTPGQRVTISCSGSSSNIGSNYVYWYQQLPGTAPKLLIYRNNQRPSGVPDRFSGSKSGTSASLAISGLRSEDEADYYCAAWDDSLSGVVFGGGTKLTVL
notes: Chimeric antigen receptor expressed on primary human CD8+ T cells; tEGFR marker is split off by T2A; also called 48 CAR; not shown: Ig-derived hinge only spacer, human CD28-derived transmembrane domain, human 4-1BB-derived intracellular signaling domai
B16: CAR containing Clone 83B scFv (VH-VL) (other)
chain: B4 scFv
notes: Chimeric antigen receptor expressed on primary human CD8+ T cells; tEGFR marker is split off by T2A; also called 83B CAR; not shown: Ig-derived hinge only spacer, human CD28-derived transmembrane domain, human 4-1BB-derived intracellular signaling domai
B17: CAR containing Clone V70 VH-only antigen-binding domain (other)
chain: QVQLLESGGGLVQPGRSLRLSCTASGFTFGDYAMSWVRQAPGKGLEWVSSISGSGRSTDHADYVKGRFTISRDNSKNTVYLQMNRLRAEDTAVYYCAKVSNYEYYFDYWAQGTLVTVSS
notes: Chimeric antigen receptor expressed on primary human CD8+ T cells; tEGFR marker is split off by T2A; also called V70 CAR; not shown: Ig-derived hinge only spacer, human CD28-derived transmembrane domain, human 4-1BB-derived intracellular signaling domai
B18: CAR containing Clone 298 scFv (VH-VL) (other)
chain: B5 scFv
notes: Chimeric antigen receptor expressed on primary human CD8+ T cells; tEGFR marker is split off by T2A; also called 298 CAR; not shown: Ig-derived hinge only spacer, human CD28-derived transmembrane domain, human 4-1BB-derived intracellular signaling domai
B19: Clone V128 (VHH)
VHH: B14 chain with Q1E, T3Q, K5L, L11V, K13Q, S30D, N31T, A32F, G106S
notes: as for B6

molecular target: T1, Human ROR1 (receptor tyrosine kinase-like orphan receptor 1) (human, UniProt Q01973 30-937); experiment: flow cytometry on ROR1-expressing cells; predicted plateau relative to R12 scFv = 100%
T1 construct: also called hROR1; K562/ROR1
Description: (§1) Additionally, percent (%) maximum (max) binding to ROR1-expressing cells and % max competition with the reference antibody (R12 scFv) were calculated. Percent max binding and competition values were calculated based on predicted plateaus (measured by Prism® using four parameter non-linear regression), relative to values for R12 scFv binding and inhibition, respectively, assigned as 100% in each study.
(§2) Assays also were performed to assess competition (measured as half maximal inhibitory concentration (IC₅₀)) of the clones with the R12 scFv reference antibody for binding to ROR1-expressing cells, as described in Example 1. Percent (%) max ROR1 and % max competition, as compared to the R12 scFv reference antibody, were determined as described in Example 1.

T1 sequence (Q01973 30-937): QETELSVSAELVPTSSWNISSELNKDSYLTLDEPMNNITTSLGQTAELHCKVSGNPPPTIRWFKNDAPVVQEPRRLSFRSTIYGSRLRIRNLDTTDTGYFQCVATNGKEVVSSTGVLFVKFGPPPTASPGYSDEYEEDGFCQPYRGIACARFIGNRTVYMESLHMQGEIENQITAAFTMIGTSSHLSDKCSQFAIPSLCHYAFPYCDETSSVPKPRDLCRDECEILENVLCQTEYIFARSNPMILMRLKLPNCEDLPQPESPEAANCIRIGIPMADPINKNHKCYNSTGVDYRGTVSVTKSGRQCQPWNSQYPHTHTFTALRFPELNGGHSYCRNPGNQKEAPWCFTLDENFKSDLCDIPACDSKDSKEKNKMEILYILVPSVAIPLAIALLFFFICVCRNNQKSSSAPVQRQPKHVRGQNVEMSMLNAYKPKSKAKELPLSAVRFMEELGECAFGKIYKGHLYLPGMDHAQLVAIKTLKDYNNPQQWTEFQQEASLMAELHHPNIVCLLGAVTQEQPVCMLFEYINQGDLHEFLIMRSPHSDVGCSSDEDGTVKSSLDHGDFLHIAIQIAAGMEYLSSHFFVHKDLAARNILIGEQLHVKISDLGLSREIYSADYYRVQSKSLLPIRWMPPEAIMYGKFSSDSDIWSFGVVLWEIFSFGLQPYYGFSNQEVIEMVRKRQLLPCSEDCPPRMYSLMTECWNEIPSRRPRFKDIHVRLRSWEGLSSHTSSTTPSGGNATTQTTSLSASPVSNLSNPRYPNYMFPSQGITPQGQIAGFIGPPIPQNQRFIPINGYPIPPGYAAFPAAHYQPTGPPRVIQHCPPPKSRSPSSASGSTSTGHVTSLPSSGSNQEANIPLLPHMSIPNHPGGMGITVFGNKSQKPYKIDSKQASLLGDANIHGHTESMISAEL

Row | % Max Binding | Binder
1 | 137% | B1
2 | 86% | B2
3 | 104% | B3
4 | 140% | B4
5 | 96% | B5

molecular target: T1, Human ROR1 (receptor tyrosine …); experiment: competition with Myc-R12 scFv on ROR1/K562 cells; predicted plateau relative to R12 scFv = 100%
Description: (§3) Assays also were performed to assess competition of the clones with the reference antibody (R12 scFv), for binding to ROR1-expressing cells. VH clones were titrated against 2 nM Myc-R12 on ROR1/K562 cells and competition assessed with an anti-Myc-Alexa647 secondary antibody, and the half maximal inhibitory concentration (IC₅₀) determined for respective clones.
as §1

Row | % Max Competition | Binder
6 | 18% | B6
7 | 58% | B7
8 | 19% | B8
9 | 31% | B9
10 | 58% | B10
11 | 48% | B11
12 | 76% | B12

molecular target: T1, Human ROR1 (receptor tyrosine …); experiment: flow cytometry on ROR1-expressing cells; predicted plateau relative to R12 scFv = 100%; remark: another data set of the same source
Description: as §1

Row | % Max Binding | Binder
13 | 18% | B6
14 | 122% | B7
15 | 29% | B8
16 | 70% | B9
17 | 22% | B13
18 | 74% | B10
19 | 64% | B11

molecular target: T1, Human ROR1 (receptor tyrosine …); experiment: flow cytometry on ROR1-expressing K562 and CHOK1 cells (n = 1)

Row | EC50 | Binder
20 | 0.0229 µM | B1
21 | 0.0051 µM | B2
22 | 0.01 µM | B3
23 | 0.0064 µM | B4
24 | 0.0059 µM | B5

molecular target: T2, Mouse ROR1 (mouse, UniProt Q9Z139 30-937); experiment: inferred from IFN-gamma release of CAR T cells on K562/mouse ROR1 cells
T2 construct: also called mROR1; K562/mouse ROR1
Description: Cytokine release was assessed following incubation of the CAR-expressing cells with either K562/human ROR1 (hROR1) or K562/mouse ROR1 (mROR1) antigen-expressing cells. Transduced CD8+ T cells were co-cultured with antigen-expressing cells at a single effector to target (E:T). The co-cultured cells were incubated for about 24 hours, and then supernatants were collected for measurement of IFN-γ using a cytokine immunoassay.

T2 sequence (Q9Z139 30-937): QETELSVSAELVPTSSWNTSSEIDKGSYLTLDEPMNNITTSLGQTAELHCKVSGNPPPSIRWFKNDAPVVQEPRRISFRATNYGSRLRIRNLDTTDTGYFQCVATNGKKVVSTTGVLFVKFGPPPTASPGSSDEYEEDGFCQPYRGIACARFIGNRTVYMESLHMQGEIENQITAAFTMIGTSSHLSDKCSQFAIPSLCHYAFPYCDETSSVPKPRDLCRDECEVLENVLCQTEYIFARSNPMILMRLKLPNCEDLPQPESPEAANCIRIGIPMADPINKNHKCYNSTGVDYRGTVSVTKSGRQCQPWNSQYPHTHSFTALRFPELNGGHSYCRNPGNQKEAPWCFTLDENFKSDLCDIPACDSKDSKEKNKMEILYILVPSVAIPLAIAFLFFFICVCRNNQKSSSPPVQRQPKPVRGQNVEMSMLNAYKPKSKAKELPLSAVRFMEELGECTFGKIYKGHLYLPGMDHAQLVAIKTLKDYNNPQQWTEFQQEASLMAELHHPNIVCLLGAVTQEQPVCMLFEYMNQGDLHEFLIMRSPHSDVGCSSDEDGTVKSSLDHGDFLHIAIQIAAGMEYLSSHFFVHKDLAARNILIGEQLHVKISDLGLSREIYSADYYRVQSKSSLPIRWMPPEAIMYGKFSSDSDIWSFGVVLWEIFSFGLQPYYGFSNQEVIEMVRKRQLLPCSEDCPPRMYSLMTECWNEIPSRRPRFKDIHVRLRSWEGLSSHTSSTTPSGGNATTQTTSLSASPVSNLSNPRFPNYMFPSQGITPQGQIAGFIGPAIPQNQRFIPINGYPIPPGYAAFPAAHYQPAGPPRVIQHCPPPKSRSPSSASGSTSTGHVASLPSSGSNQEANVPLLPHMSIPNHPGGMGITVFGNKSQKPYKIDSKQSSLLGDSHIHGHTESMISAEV

Row | binding result | Binder
25 | binds | B14
26 | binds | B15
27 | binds | B16
28 | binds | B17
29 | binds | B18

molecular target: T1, Human ROR1 (receptor tyrosine …); experiment: competition with R12 scFv on ROR1-expressing cells; predicted plateau relative to R12 scFv = 100%
Description: as §1, §2

Row | % Max Competition | Binder
30 | 80% | B1
31 | 97% | B2
32 | 71% | B3
33 | 103% | B4
34 | 88% | B5

molecular target: T1, Human ROR1 (receptor tyrosine …); experiment: flow cytometry on ROR1-expressing K562 and CHOK1 cells (n = 1); remark: another data set of the same source

Row | EC50 | Binder
35 | 0.0497 µM | B6
36 | 0.0929 µM | B7
37 | 0.0237 µM | B8
38 | 0.0188 µM | B9
39 | 0.0315 µM | B13
40 | 0.008 µM | B10
41 | 0.0131 µM | B11

molecular target: T1, Human ROR1 (receptor tyrosine …); experiment: flow cytometry competition, competitor 2 nM Myc-R12 scFv on ROR1/K562 cells (n = 1)
Description: as §3

Row | IC50 | Binder
42 | 0.0252 µM | B6
43 | > 0.2 µM | B19
44 | 0.154 µM | B7
45 | 0.0056 µM | B8
46 | 0.0324 µM | B9
47 | 0.0715 µM | B10
48 | 0.0943 µM | B11
49 | > 0.2 µM | B12

molecular target: T1, Human ROR1 (receptor tyrosine …); experiment: flow cytometry competition, competitor R12 scFv on ROR1-expressing cells (n = 1)
Description: as §3, §2

Row | IC50 | Binder
50 | 0.0491 µM | B1
51 | 0.0625 µM | B2
52 | 0.0539 µM | B3
53 | 0.015 µM | B4
54 | 0.0413 µM | B5
